{"source": "paper PMC11303537", "about": "“Deciphering the allosteric regulation of mycobacterial inosine-5′-monophosphate dehydrogenase” (Nature Communications, 2024)", "target": "the molecule itself", "assay": "cryo-EM structure; single-particle cryo-EM, MsmIMPDH octamer ~2.5-3.5 µM, 50 mM HEPES pH 7.4, 200 mM KCl, 5 mM DTT, 2 mM MgCl2 excess over nucleotides; datasets apo, ATP, ATP+IMP, ATP+GTP+IMP, ATP+ppGpp+IMP", "note": "Where “and” joins values, the source holds several entries; their conditions need not be identical. Identical values can stand only once."}
{"protein": "inosine-5′-monophosphate dehydrogenase from Mycobacterium smegmatis (enzyme, Mycobacterium smegmatis MC2 155, UniProt A0QSU3 1-513, looked up, also called MsmIMPDH; MsmGuaB2; source: E. coli BL21 RIL LOBSTR, purified (HisTrap, TEV cleavage, second HisTrap, HiTrap Q, Superdex 200); not shown: His6, N-terminal, cleaved) MSIAESSVPIAVPVPTGGDDPTKVAMLGLTFDDVLLLPAASDVVPATADTSSQLTKRIRLRVPLVSSAMDTVTESRMAIAMARAGGMGVLHRNLPVAEQAGQVETVKRSEAGMVTDPVTCSPDNTLAEVDAMCARFRISGLPVVDDTGELVGIITNRDMRFEVDQSKPVSEVMTKAPLITAKEGVSAEAALGLLRRHKIEKLPIVDGHGKLTGLITVKDFVKTEQFPLSTKDSDGRLLVGAAVGVGDDAWTRAMTLVDAGVDVLIVDTAHAHNRGVLDMVSRLKQAVGERVDVVGGNVATRAAAAALVEAGADAVKVGVGPGSICTTRVVAGVGAPQITAILEAVAACKPYGVPVIADGGLQYSGDIAKALAAGASTAMLGSLLAGTAESPGELIFVNGKQFKSYRGMGSLGAMQGRGAAKSYSKDRYFQDDVLSEDKLVPEGIEGRVPFRGPLGTVIHQLTGGLRAAMGYTGSATIEQLQQAQFVQITAAGLKESHPHDITMTVEAPNYYTR", "values": [{"measurement": "stoichiometry N", "value": "8 and 4"}]}
